# Source: patent publication CN113402607A (BEIJING EASTERN BIOTECH CO LTD, dated 2021)
# Positions count from the first letter of the chain named.
# B1: 抗LAP单克隆抗体 A-1 (全抗, mouse IgG2a / mouse Ck) (antibody, V domains shown)
# VH: EVQLEQSGPELKKPGETVKISCKASGYTFTSYGMNWVKQAPGKALKWMGWINTYTGEPTYADDFKGRFAYSLEATANTAYLQIYNLKNEDTATYFCARSGRYTRPLYYIMDFWGQGTSVTVSS
# VL: not shown
# notes: Full antibody made in HEK293E from vector pTSE; also called A-1抗体
# B2: 抗LAP单克隆抗体 A-5 (全抗, mouse IgG2a / mouse Ck) (antibody, V domains shown)
# VH: EVQLQQSGAVLVRPGDSVKLSCKASGYSFTRSWINWVKQRPGQGLEWIGNIYPSDSYTNYNQKFKDKATLTVDKSSSTAYMQLRSPTSEDSAVYYCTNYYLYYFDYWGQGTTLTVSS
# VL: DIVLTQSPSSLAVSTGEKVTMSCKSSQSLLNSRTRKSYLAWYQQKPGQSPKLLIYWTSIRESGVPDRFTGNGSGTDFTLTISSVQAEDLAVYYCKQSYNLFTFGGGTKLEMKR
# notes: Full antibody made in HEK293E from vector pTSE
# B3: 抗LAP单克隆抗体 A-2 (全抗, mouse IgG2a / mouse Ck) (antibody, V domains shown)
# VH: EVQLEESGAELVRSGASVKLSCTASGFNFNDYYMHWVKQRPEQGLEWIGWIDPENGDTEYAPKFQVKATMTADTSSNTAYLHLSSLASEDTAVYYCNTPTEDMDYWGQGTSVTVSS
# VL: DIVMTQSPSSLAVSAGEKVTMSCKSSQSLFNSRTRKNYLAWYQQKPGQSPKLLIYWASTRGSGVPDRFTGSGSGTDFTLTISSVQAEDLAVYYCKQSYNLLTFGAGTKLELKA
# notes: as for B2
# B4: 抗LAP单克隆抗体 A-3 (全抗, mouse IgG2a / mouse Ck) (antibody, V domains shown)
# VH: EVKLQESGAELVMPGASVKMSCKASGYTFTDYWMHWVKQRPGQGLEWIGAIDTSDSYTSYNQKFKGKATLTVDESSSTAYMQLSSLTSEDSAVYYCARKALSGYFDVWGAGTTVTVSS
# VL: DIVLTQTPSSLSASLGGKVTITCKASQDIYKYIAWYQHKPGKGPRLLIHYTSTLQPGIPSRFSGSGSGRDYSFSISNLEPEDIATYYCLQYDNLRTFGGGTKLEIKA
# notes: as for B2
# B5: 抗LAP单克隆抗体 A-4 (全抗, mouse IgG2a / mouse Ck) (antibody, V domains shown)
# VH: EVKLQESGPGLVAPSQSLSITCTVSGFSLTTYGVSWVRQPPGKGLEWLGIIWGDGTTIYQSGLISRLSISKDDSKSQVFLKLSSLQTDDTATYYCAKHYFVMDYWGQGTSVTVSS
# VL: B3 VL with M4L, S22N, F30L, T34I, G61E, L101W, A105G, L111I
# notes: as for B2
# B6: 抗LAP单克隆抗体 A-6 (全抗, mouse IgG2a / mouse Ck) (antibody, V domains shown)
# VH: QVKLQESGPELVKPGASVKISCKASGYTFTDYNMHWVKQSHGKSLEWIGYFYPYNGGTGYKQKFKSKATLTVDNSSSTAYMELRSLTSEDSAVYYCARNHYYYYAMDYWGQGTSVTVSS
# VL: DIVMTQTPSSLAVSAGEKVTMSCKSSQSLLNSRTRKNYLAWYQQKPGQSPKLLIYWASTRESGVPDRFTGSGSGTDFTLTISSVQAEDLAVYYCKQSYNLPWTFGGGTKLEIKA
# notes: as for B2
# Biological target: LAP-TGFβ1 overexpressed on cells (过表达LAP-TGFβ1的CHO细胞) (UniProt P01137 30-390, limits assumed)
# Assay: cell-based or functional assay
# Sequence of LAP-TGFβ1 overexpressed on cells (过表达LAP-TGFβ1的CHO细胞) (P01137 30-390 limits assumed): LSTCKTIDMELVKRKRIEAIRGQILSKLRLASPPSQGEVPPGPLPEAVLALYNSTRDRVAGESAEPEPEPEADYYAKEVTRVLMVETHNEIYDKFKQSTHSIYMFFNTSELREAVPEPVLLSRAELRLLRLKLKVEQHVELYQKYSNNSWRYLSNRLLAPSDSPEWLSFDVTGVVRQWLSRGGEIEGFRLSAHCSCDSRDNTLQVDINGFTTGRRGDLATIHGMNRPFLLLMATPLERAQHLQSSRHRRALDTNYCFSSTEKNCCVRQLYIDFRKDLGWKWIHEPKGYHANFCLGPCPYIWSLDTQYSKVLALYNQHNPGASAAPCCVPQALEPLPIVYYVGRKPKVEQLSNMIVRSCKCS
row,Binder,"IC50(μg/ml), 抑制细胞表面TGFβ1的释放 (PAI-LUC Mv.1.lu reporter cells, luciferase) [µg/mL]"
1,B1,0.741
2,B2,1.69

# Biological target: LAP-TGFβ1抗原 (coated antigen) (UniProt P01137 30-390, limits assumed)
# Assay: competition ELISA on coated LAP-TGFβ1; competitor biotin-labelled 28G11 at 1 μg/ml
# Sequence of LAP-TGFβ1抗原 (coated antigen) (P01137 30-390 limits assumed): as above
row,Binder,IC50 [µg/mL]
1,B1,0.0972
2,B2,0.0526
3,B3,0.0764
4,B4,0.00695
5,B5,0.00805
6,B6,0.0557
